Target: T. aurantiacus GH61A polypeptide (Thermoascus aurantiacus, UniProt G3XAP7, N13Y)
Experiment: Phosphoric acid swollen cellulose (PASC) hydrolysis assay (Examples 18, 19)
Assay type: biochemical
Conditions: T. aurantiacus GH61A polypeptide (20 mg/g) + A. oryzae CEL3A beta-glucosidase (20 mg/g), no gallic acid; 72 hours, 50° C.
Protocol: A 1% phosphoric acid swollen cellulose (PASC) slurry was prepared from AVICEL® PH101 using the protocol described by Zhang et al., 2006, Biomacromolecules 7: 644-648.
The 1.0% PASC slurry prepared as described in Example 17 was thoroughly resuspended by shaking, and quickly transferred to a 100 ml beaker and stirred rapidly with a magnetic stirrer. Five hundred μl aliquots of the 1.0% PASC slurry were pipetted into wells of a 2.0 ml 96-deepwell plate (Axygen, Union City, Calif., USA) using a 1000 μl micropipette with a wide aperture tip (end of tip cut off about 2 mm from the base). One hundred μl of 10 mM MnSO4-500 mM sodium acetate pH 5 were then added to each well. […]
Primary analysis of the hydrolysis reactions was performed using an AGILENT® 1100 HPLC with CHEMSTATION® software equipped with an AMINEX™ HPX-87H column. […] Sugars were detected using a refractive index detector with quantification by integration compared to purified sugar standards.
All HPLC data processing was performed using MICROSOFT EXCEL™ software. […] In this assay only glucose was measured since beta-glucosidase was at high levels in all samples but the controls. Percent conversion was calculated using Equation 1. Triplicate data points were averaged and standard deviation was calculated. […]
Data were collected and analyzed, as described in Example 18, after 72 hours of incubation at 50° C.

B1: T. aurantiacus GH61A polypeptide: GH61A polypeptide having cellulolytic enhancing activity (SEQ ID NO: 14), recombinantly produced in Aspergillus oryzae JaL250 (protein, listed as Thermoascus aurantiacus)
chain: MSFSKIIATAGVLASASLVAGHGFVQNIVIDGKYYGGYLVNQYPYMSNPPEVIAWSTTATDLGFVDGTGYQTPDIICHRGAKPGALTAPVSPGGTVELQWTPWPDSHHGPVINYLAPCNGDCSTVDKTQLEFFKIAESGLINDDNPPGIWASDNLIAANNSWTVTIPTTIAPGNYVLRHEIIALHSAQNQDGAQNYPQCINLQVTGGGSDNPAGTLGTALYHDTDPGILINIYQKLSSYIIPGPPLYTG
conversion of PASC: 2.6±0.1%

— US9394555B2, “Compositions comprising a polypeptide having cellulolytic enhancing activity and a dioxy compound and uses thereof” (priority 2010, dated 2016)
